According to patent US20230374148A1, “BINDING MOLECULES THAT MULTIMERISE CD45” (UCB BIOPHARMA SRL, priority 2020, published 2023):

What was measured:
Assay type in all cases: cell-based
Human whole blood = assay: Cytokine release in whole blood at 24 hrs, Luminex bead assay
Description: Human whole blood (Lithium heparin tubes) was taken from two donors (HTA #300120-1 & #300120-2) at UCB Pharma Slough, UK according to approved ethical sample collection protocol.
In a Greiner 96-well non-binding microplate, stocks of 4133-6294 BYbe and negative control BYbe (NegCtrl BYbe), with antigen-irrelevant specificity in both the Fab and scFv positions, were prepared in PBS at 5000 nM. The BYbe reagents were then serially diluted in PBS 1 in 5, three times to produce to form a 4-point dose curve. 12.5 μl of BYbe dilution was transferred into Corning Costar 96-well, cell culture treated, U-shaped-bottom microplate (cat no. 07-200-95) and 237.5 μl of whole blood added to each well. Final well concentrations of BYbes were 250 nm, 50 nM, 10 nm and 2 nM. Campath (clinical grade, diluted from 30 mg/ml stock to 1 mg/ml in PBS, lot number F1002H29) was used as a positive control at a final concentration of 10 μg/ml. Plates were sealed with a gas permeable adhesive seal and plate lids were replaced. Plates were then incubated for 24 hrs at 37° C. and 5% humidified CO2 in an undisturbed location.
Cytokine release was then assessed using a R&D Systems Luminex 13-plex human cytokine assay (custom selection of cytokines as follows; IL-1 RA, IL-4, IL-5, IL-6, IL-10, IL-11, IL-13, CCL2, IL-8, CXCL1, CX3CL1, GM-CSF and M-CSF). Following the 24-hour incubation, plates were spun at 1000 g for 10 mins and 50 μl of plasma was transferred to a separate plate containing 50 μl of assay diluent buffer (RD6-52 from the Luminex kit). Samples were resuspended thoroughly using a multichannel pipette and 50 μl transferred to the Luminex assay plate. Luminex assay standards were diluted 1 in 2, seven times to construct standard curves and added to the plate. 50 μl of microparticle mixture was then added to each well and plates incubated for 2 hrs at room temperature (RT) and mixed at 800 rpm. Plates were washed 3 times by adding 150 μl of wash buffer to each well then allowing the magnetic beads to bind to a BioTek ELx405 microplate washer magnet before supernatant was aspirated. 50 μl of biotin-antibody cocktail was added to each well at plates incubated for 1 hr at RT with shaking. Plates were then washed as before and a final addition of 50 μl of streptavidin-PE added to each well. Plates were incubated for 30 mins at RT with shaking before a final wash step and addition of 50 μl of wash buffer to each well. The Luminex assay plate was run using the iQUEplus flow cytometer (Sartorius). Standard curves were generated (using provided assay controls) and extrapolated cytokine values generated using Forecyt software (Sartorius). Data was then transferred to Graphpad Prism version 8.1 (Graphpad) to generate data visualisations.

SU-DHL-4 = assay: Apoptosis of cell lines: SU-DHL-4; settings: SU-DHL-4, 21 hrs
Source text: (§1) The following cell lines representing various leukaemia's and lymphoma's, as classified by ATCC (www.atcc.org/), were used: Jurkat—acute T-cell leukaemia; CCRF-SB—B-cell acute lymphoblastic leukaemia; MC116—B-cell undifferentiated lymphoma; Raji, Ramos—Burkitt lymphoma (rare form of B-cell non-Hodgkin lymphoma); SU-DHL-4, SU-DHL-5, SU-DHL-8, NU-DUL-1, OCI-Ly3—Diffuse large B-cell lymphoma; THP-1—acute monocytic leukaemia; and Dakiki—B cell nasopharyngeal carcinoma.
(§2) Prior to an assay being performed, 1 vial of each of the above cell lines was thawed in a 37° C. water bath and then added to 20 ml complete media (RPMI 1640+2 mM GlutaMAX+1% Pen/Strep, all previous supplied by Invitrogen, +10% Fetal Bovine Serum (FBS), Sigma Aldrich). Cells were spun (500 g, 5 min, at RT) and re-suspended in 20 ml complete media to wash and spun again. Cells were resuspended in 10 ml complete media and then counted using a ChemoMetec NucleoCounter NC-3000. 6×10^6 cells of each cell line were spun (500 g, 5 min, at RT) and re-suspended in 4.8 ml complete media. 1×10^5 cells in 80 μl were then added to each well of a Corning Costar 96-well, cell culture treated, U-shaped-bottom microplate (cat no. 07-200-95). The plate was rested in a 37° C., 5% CO2 incubator for 2 hrs
(§3) Stocks of 4133-6294 BYbe and NegCtrl BYbe at 2500 nM in complete media were prepared. In a Greiner 96-well non-binding microplate, both reagents were serially diluted in complete media 1 in 5, seven times to produce to form an 8-point dose curve. […] (final well concentrations 500-0.0064 nM) was added to the cells. Each concentration was produced in triplicate. Camptothecin (cat no. C9911-100MG, Sigma Aldrich) and Staurosporine (cat no. 56942-200UL, Sigma Aldrich) were added as positive controls of apoptosis. Both were diluted in complete media and added to the well to produce a final concentration of 5 μM. Additional positive controls included anti-thymocyte globulin (ATG, indicated by FDA for use in conditioning regimens), Rituximab (anti-CD20, indicated by FDA for Non-Hodgkin Lymphoma and Chronic Lymphocytic Leukaemia) and Campath (anti-CD52, indicated by FDA for B-cell Chronic Lymphocytic Leukaemia). Anti-thymocyte globulin, Rituximab and Campath were added to the wells to produce final concentrations of 200 μg/ml, 500 nM and 200 μg/ml, respectively. […]
(§4) Following the incubation, the plates were spun at 500 g, 5 min, RT, the buffer was aspirated with a BioTek ELx405 microplate washer, and the cells were re-suspended in FACS buffer (PBS+1% bovine serum albumin (BSA)+0.1% NaN3+2 mM EDTA, Sigma Aldrich) to wash and then re-spun and buffer was aspirated to leave the cells in 20 μl residual media. […] Cells were analysed using the Bio-Rad ZE5 Cell Analyzer. […]

Dakiki = assay: Apoptosis of cell lines: Dakiki; settings: 21 hrs
Source text: as §1, §2, §3, §4

[1] = Campath 10 μg/ml, donor #300120-1

| Molecule | IL-6 level induced (Human whole blood; Campath 10 μg/ml, above PBS-treated wells) | CCL2 level induced (Human whole blood; [1]) | IL-1 RA level induced (Human whole blood; [1]) | IL-8 level induced (Human whole blood; [1]) | Campath mean (%) cell reduction (SU-DHL-4; 200 μg/ml) [%] | Campath mean (%) cell reduction (Dakiki; 200 μg/ml) [%] | induction of inflammatory cytokines (Human whole blood; 250-2 nM, compared with PBS- and NegCtrl BYbe-treated wells) | Bottom (%) level of % cell reduction (SU-DHL-4) [%] | Top (%) level of % cell reduction (SU-DHL-4) [%] | Bottom (%) level of % cell reduction (Dakiki) [%] | Top (%) level of % cell reduction (Dakiki) [%] |
| --- | --- | --- | --- | --- | --- | --- | --- | --- | --- | --- | --- |
| Campath: anti-CD52, clinical grade, indicated by FDA for B-cell Chronic Lymphocytic Leukaemia; positive control [reference compound] | marked levels | exceeded the standard curve | exceeded the standard curve | exceeded the standard curve | 92.46 | 8.83 |  |  |  |  |  |
| 4133-6294 BYbe: anti-CD45 BYbe (Fab-scFv): 4133 Fab HC-G4S linker-6294 scFv heavy chain paired with 4133 light chain (antibody) heavy: QEQLVESGGGLVQPEGSLTLTCTASGFSFSGNYYMCWVRQAPGKGLEWIGCLYTGSSGSTYYASWAKGRFTISKTSSTTVTLQMTSLTAADTATYFCARDLGYEIDGYGGLWGQGTLVTVSSGQPKAPSVFPLAPCCGDTPSSTVTLGCLVKGYLPEPVTVTWNSGTLTNGVRTFPSVRQSSGLYSLSSVVSVTSSSQPVTCNVAHPATNTKVDKTVAPSTCSKPGGGGSGGGGSEVQLVESGAELARPGASVKMSCKASGYTFTSYTMHWVKQRPGQCLEWIGYINPSSGYTEYNQKFKDKTTLTADKSSSTAYLQLSSLTSEDSAVYYCARVGDGFYPSWLAYWGQGTLVTVSSGGGGSGGGGSGGGGSGGGGSDIQMTQSPKFLLVSAGDRVTITCKASQSVRNDVAWYQQKPGQSPKLLIFYASKRYTGVPDRFTGSGYGTDFTFTISTVQAEDLAVYFCQQDYSSPTTFGCGTKLEIK light: AQVLTQTPSPVSAVVGGTVSISCQASQSVYNNNNLSWYQQKPGQPPKLLIYDASKLASGVPSRFKGSGSGTQFTLTISGVQCDDAATYYCLGGYYSSGWYFAFGGGTKVVVKRTPVAPTVLIFPPAADQVATGTVTIVCVANKYFPDVTVTWEVDGTTQTTGIENSKTPQNSADCTYNLSSTLTLTSTQYNSHKEYTCKVTQGTTSVVQSFNRGDC |  |  |  |  |  |  | little or no induction | 16.98 | 91.88 | 10.88 | 76.37 |
